Measured values as given in paper PMC5593958, “Dissecting the link between the enzymatic activity and the SaPI inducing capacity of the phage 80α dUTPase” (Scientific Reports, 2017).

Legend:
Dut80α = molecular target: T1, Dut80α (Dubowvirus dv80alpha, UniProt A4ZF98); test: thermal shift (Sypro Orange); type: binding; conditions: 1 mM dUPNPP, 5 mM MgCl2, 10 μM protein, 75 mM HEPES pH 7.5, 250 mM NaCl; absolute Tm, not a shift; decimal comma as printed
T1 construct: pET28a, His-tagged, E. coli BL21 (DE3), HisTrap and size exclusion; homotrimer; last residues cited about 170
Excerpt: thermal shift (Sypro Orange) on Dut80α

[1] = system: O=c1ccn([C@H]2C[C@H](O)[C@@H](COP(=O)(O)OP(=O)(O)OP(=O)(O)O)O2)c(=O)[nH]1; test: malachite green phosphate assay; type: biochemical, Dubowvirus dv80alpha; conditions: pH 7.5
Excerpt: malachite green phosphate assay on Dut80α

[2] = molecular target: phage 80α dUTPase D95E mutant (Dut80α D95E) (Staphylococcus aureus phage 80α); test: BLI
[3] = molecular target: phage 80α dUTPase D95E mutant (Dut80α D95E) (Staphylococcus aureus phage 80α); test: crystal structure

In the case of `O=c1ccn([C@H]2C[C@H](O)[C@@H](COP(=O)(O)NP(=O)(O)OP(=O)(O)O)O2)c(=O)[nH]1` [dUPNPP, 2′-Deoxyuridine-5′-[(α,β)-imido]triphosphate], the “Thermal Unfolding (°C) / +dUPNPP” value (Dut80α) is reported as 58 ± 0,09.
(Dubowvirus dv80alpha) showed a Km [1] of 7.5 µM.
“Stl repressor from SaPIbov1 (natural protein)” was tested, and the Kd [2] was > 1 mM.
In the case of “phage 80α dUTPase D95E mutant (Dut80α D95E) (enzyme)”, the stoichiometry N [3] is reported as 3.
